# Experimental data as given in US20060029947A1.
# Biological target: Bacillus anthracis protective antigen (PA) (Bacillus anthracis) (UniProt P13423)
# Sequence (P13423 30-764 limits assumed): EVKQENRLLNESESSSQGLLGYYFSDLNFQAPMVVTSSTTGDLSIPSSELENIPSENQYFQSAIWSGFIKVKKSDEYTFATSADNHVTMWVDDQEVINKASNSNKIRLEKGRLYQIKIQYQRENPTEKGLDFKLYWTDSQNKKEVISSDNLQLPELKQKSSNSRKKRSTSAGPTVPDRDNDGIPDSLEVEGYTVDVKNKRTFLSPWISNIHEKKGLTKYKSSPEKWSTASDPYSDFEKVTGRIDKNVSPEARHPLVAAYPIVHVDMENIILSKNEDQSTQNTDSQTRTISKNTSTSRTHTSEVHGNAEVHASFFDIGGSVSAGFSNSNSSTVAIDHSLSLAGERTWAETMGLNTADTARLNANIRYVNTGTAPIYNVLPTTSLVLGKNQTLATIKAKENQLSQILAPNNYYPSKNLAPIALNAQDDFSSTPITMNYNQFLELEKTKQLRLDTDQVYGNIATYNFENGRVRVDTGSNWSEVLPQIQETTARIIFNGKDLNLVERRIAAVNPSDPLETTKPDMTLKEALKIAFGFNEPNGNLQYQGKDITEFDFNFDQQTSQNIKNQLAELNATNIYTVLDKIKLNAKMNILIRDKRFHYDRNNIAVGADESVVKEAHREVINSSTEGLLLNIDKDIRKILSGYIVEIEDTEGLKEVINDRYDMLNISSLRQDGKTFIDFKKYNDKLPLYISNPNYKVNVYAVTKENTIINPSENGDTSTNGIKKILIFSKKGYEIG
# Sequence of 26-10 scFv-g3p fusion (pAK200) (P69168 268-424): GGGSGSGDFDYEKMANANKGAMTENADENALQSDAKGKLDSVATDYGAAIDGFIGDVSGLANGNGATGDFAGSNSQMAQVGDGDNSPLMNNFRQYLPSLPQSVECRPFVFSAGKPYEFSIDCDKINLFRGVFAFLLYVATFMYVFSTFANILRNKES
substance,measurement,value
26-10 scFv-g3p fusion (pAK200) (from UniProt P69168 268-424),M (mean fluorescence),7.25
